Assay results from PMC10325899.

Target: fluorescein labeled GST-PKM1 (UniProt P14618)
Test: MST; 40 nM fluorescein-labelled PKM1 with salt-washed ribosomes titrated from 0 to about 1.5 μM in PBS + 5 mM MgCl2, room temperature; three batches of ribosomes fitted globally to a 1:1 model; binding not fully saturated

UniProt P14618, sequence (P14618 other isoform, or with tags, fused parts or gaps): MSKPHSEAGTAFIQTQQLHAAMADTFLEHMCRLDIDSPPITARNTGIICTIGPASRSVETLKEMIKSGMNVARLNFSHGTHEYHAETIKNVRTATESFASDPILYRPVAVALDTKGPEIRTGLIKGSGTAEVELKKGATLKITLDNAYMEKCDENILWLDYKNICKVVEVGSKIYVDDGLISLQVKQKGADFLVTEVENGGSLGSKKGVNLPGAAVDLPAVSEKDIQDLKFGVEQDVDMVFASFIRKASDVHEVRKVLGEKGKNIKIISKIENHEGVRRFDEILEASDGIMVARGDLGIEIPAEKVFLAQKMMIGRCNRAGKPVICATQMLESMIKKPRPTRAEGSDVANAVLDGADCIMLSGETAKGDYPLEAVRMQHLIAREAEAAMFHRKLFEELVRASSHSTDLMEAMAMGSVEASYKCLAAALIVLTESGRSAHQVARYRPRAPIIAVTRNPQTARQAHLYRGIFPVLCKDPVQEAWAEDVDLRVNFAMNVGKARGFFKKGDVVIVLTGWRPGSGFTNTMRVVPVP

Kd: 0.9 µM
Substance: salt-washed ribosomes isolated from HEK293F cells (from UniProt P36578 1-427) (complex)
